# In patent US20230357411A1:
# Molecular target: TrKA (ELISA antigen, target Human-TrKA) (human) (UniProt P04629)
# Experiment: ELISA, antibody 0 to 20 µg/mL, plateau
# Sequence of TrKA (ELISA antigen, target Human-TrKA) (human) (P04629 33-423 limits assumed): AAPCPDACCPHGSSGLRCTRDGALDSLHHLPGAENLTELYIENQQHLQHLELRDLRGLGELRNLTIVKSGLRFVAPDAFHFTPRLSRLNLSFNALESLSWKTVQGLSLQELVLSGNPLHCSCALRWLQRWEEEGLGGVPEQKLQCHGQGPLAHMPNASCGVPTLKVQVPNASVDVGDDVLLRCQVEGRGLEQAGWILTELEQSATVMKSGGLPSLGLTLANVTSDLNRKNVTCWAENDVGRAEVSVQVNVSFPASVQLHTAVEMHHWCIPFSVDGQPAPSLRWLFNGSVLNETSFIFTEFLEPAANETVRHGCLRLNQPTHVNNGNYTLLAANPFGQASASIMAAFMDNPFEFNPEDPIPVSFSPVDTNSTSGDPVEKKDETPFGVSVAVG
row,OD450,Binder
1,3,humanized anti-TrkA monoclonal antibody H1L1-IgG4 (antibody) heavy: EVQLLESGGGLVQPGGSLKLSCKASGYAFTNYWLGWMKQRPGHGLEWIGDFYPRTGNTFYNENFKGKVTLTADKSSNTAYMQLSSLTSEDSAVYLCARAGTGFDYWGQGTTLTVSSASTKGPSVFPLAPCSRSTSESTAALGCLVKDYFPEPVTVSWNSGALTSGVHTFPAVLQSSGLYSLSSVVTVPSSSLGTKTYTCNVDHKPSNTKVDKRVESKYGPPCPPCPAPEAAGGPSVFLFPPKPKDTLMISRTPEVTCVVVDVSQEDPEVQFNWYVDGVEVHNAKTKPREEQFNSTYRVVSVLTVLHQDWLNGKEYKCKVSNKGLPSSIEKTISKAKGQPREPQVYTLPPSQEEMTKNQVSLTCLVKGFYPSDIAVEWESNGQPENNYKTTPPVLDSDGSFFLYSKLTVDKSRWQEGNVFSCSVMHEALHNHYTQKSLSLSLG light: EIVMTQSPATLSLSVGERVTLSCKASENVGGYVSWYQQKPDQSPKLLIYGASSRHTGVPDRFTGSGSETDFTLTISSVQAEDLAAYHCGQNYIYPFTFGGGTKLEIKRTVAAPSVFIFPPSDEQLKSGTASVVCLLNNFYPREAKVQWKVDNALQSGNSQESVTEQDSKDSTYSLSSTLTLSKADYEKHKVYACEVTHQGLSSPVTKSFNRGEC
2,3,human-mouse chimeric anti-TrkA monoclonal antibody 23E12 (H0L0-IgG4) (antibody) heavy: QVQLQQSGAELVRPGTSVKISCKASGYAFTNYWLGWMKQRPGHGLEWIGDFYPRTGNTFYNENFKGKVTLTADKSSNTAYMQLSSLTSEDSAVYLCARAGTGFDYWGQGTTLTVSSASTKGPSVFPLAPCSRSTSESTAALGCLVKDYFPEPVTVSWNSGALTSGVHTFPAVLQSSGLYSLSSVVTVPSSSLGTKTYTCNVDHKPSNTKVDKRVESKYGPPCPPCPAPEAAGGPSVFLFPPKPKDTLMISRTPEVTCVVVDVSQEDPEVQFNWYVDGVEVHNAKTKPREEQFNSTYRVVSVLTVLHQDWLNGKEYKCKVSNKGLPSSIEKTISKAKGQPREPQVYTLPPSQEEMTKNQVSLTCLVKGFYPSDIAVEWESNGQPENNYKTTPPVLDSDGSFFLYSKLTVDKSRWQEGNVFSCSVMHEALHNHYTQKSLSLSLG light: SIVMTQSPKSMSMSVGERVTLSCKASENVGGYVSWYQQKPDQSPKLLIYGASSRHTGVPDRFTGSGSETDFTLTISSVQAEDLAAYHCGQNYIYPFTFGGGTKLEIKRTVAAPSVFIFPPSDEQLKSGTASVVCLLNNFYPREAKVQWKVDNALQSGNSQESVTEQDSKDSTYSLSSTLTLSKADYEKHKVYACEVTHQGLSSPVTKSFNRGEC
3,3,"humanized anti-TrkA monoclonal antibody H3L1-IgG4 (antibody, V domains shown) VH: EVQLLESGGGLVQPGGSLKLSCKASGYAFTNYWLGWMKQRPGHGLEWIGDFYPRTGNTFYNENFKGQVTMSVDKSITTAYLQWNSLKASDTAMYYCARAGTGFDYWGQGTTLTVSS VL: EIVMTQSPATLSLSVGERVTLSCKASENVGGYVSWYQQKPDQSPKLLIYGASSRHTGVPDRFTGSGSETDFTLTISSVQAEDLAAYHCGQNYIYPFTFGGGTKLEIKR"
4,3,"humanized anti-TrkA monoclonal antibody H3L2-IgG4 (antibody, V domains shown) VH: EVQLLESGGGLVQPGGSLKLSCKASGYAFTNYWLGWMKQRPGHGLEWIGDFYPRTGNTFYNENFKGQVTMSVDKSITTAYLQWNSLKASDTAMYYCARAGTGFDYWGQGTTLTVSS VL: EIVMTQSPATLSLSVGERVTLSCKASENVGGYVSWYQQKPDQSPKLLIYGASSRATGVPDRFTGSGSETDFTLTISSVQAEDLAAYHCGQNYIYPFTFGGGTKLEIKR"
